The target of one assay is T1, human CD166 (human, UniProt Q13740 28-583).
T1 construct: whole, on cells; Endogenous protein detected by IHC on fixed, paraffin-embedded cells and tissues, and by Western blot of cell lysates; also called hCD166
T1 sequence (looked up): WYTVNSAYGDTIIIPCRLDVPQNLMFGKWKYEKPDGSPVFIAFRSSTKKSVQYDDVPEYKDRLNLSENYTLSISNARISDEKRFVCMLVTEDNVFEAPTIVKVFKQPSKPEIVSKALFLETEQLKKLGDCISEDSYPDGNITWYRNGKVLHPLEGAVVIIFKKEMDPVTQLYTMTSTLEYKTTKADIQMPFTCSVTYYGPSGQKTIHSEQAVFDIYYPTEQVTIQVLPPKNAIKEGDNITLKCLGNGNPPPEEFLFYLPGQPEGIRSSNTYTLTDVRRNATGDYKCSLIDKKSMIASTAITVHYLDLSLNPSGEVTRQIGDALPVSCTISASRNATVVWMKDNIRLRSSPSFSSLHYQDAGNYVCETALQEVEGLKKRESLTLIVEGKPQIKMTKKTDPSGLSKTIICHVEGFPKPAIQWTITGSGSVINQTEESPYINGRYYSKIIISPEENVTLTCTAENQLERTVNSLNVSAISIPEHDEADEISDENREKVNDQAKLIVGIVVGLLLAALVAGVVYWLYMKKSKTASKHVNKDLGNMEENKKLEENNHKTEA
The assay can be described thus: IHC on FFPE HCC1806 cells, supernatant at 10 µg/mL IgG. On the procedure: As shown in the exemplary IHC images of FIGS. 1-4, formalin-fixed paraffin-embedded (FFPE) human tumor cell lines (triple-negative breast cancer-derived cell line HCC1806 and breast ductal carcinoma-derived cell line BT-20) were prepared and blocked using standard protocols, and then incubated with the indicated hybridoma supernatents (Ab3, Ab6, Ab2, Ab1, Ab5, Ab7, Ab4, or Ab8 of the present disclosure) at 10 μg/mL IgG for 60 minutes are room temperature. As a control, FFPE samples were also incubated with ABCAM® EPR2759(2)/ab109215 anti-hCD166 rabbit monoclonal antibody at 5 μg/mL. Detection of bound primary antibody was performed by subsequent incubation with biotinylated-conjugated anti-mouse IgG antibody (for the hybridoma supernatents) or biotinylated-conjugated anti-rabbit IgG antibody (for the ABCAM® antibody), followed by addition of avidin-horseradish peroxidase (HRP) (Vectastain Elite ABC HRP Kit, Vector Laboratories) to form the avidin-biotin-HRP complex, followed by addition of a 3,3′-diaminobenzidine substrate (DAB Plus, Dako). Tissues were counterstained with Hematoxylin (Fisher Scientific).

The target of assay [1] is T2, Peptide A, amino acid residues 550 to 569 of human CD166 (human).
T2 construct: Coated at 100 or 200 ng/well with 0.9 mg/mL BSA
T2 peptide: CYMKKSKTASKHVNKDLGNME
The assay can be described thus: ELISA, 200 ng/well peptide with 0.9 mg/mL BSA; expanded hybridoma clone supernatant. From the text:
(§1) B cells from each of Mouse #2 and Mouse #3 were fused in a combined manner to generate hybridomas in accordance with methods known in the art. Hybridomas were cloned and ˜1100 clone supernatants were screened against the each of the human CD166-derived peptides using a Direct EIA format using a goat anti-IgG gamma chain-specific secondary antibody coupled to horseradish peroxidase (HRP) (Millipore, Cat. No. AP503P. Following the initial screen, 136 clones were selected for a further confirmatory screen, of which forty (40) were selected for expansion. The expanded clones were assayed for mouse IgG levels using anti-mouse sensors in an Octet RED96 system (Pall ForteBio) and ELISA (200 ng/well of peptides A or B with 0.9 mg/mL BSA). Candidates included Ab1 (also referred to herein as “Example anti-CD166 ICD antibody 1”), Ab2 (also referred to herein as “Example anti-CD166 ICD antibody 2”), Ab3, Ab4, Ab5, Ab6, Ab7, and Ab8. Five candidates (Ab1, Ab2, Ab3, Ab4, and Ab5) shown below in Table 4 were selected.

Assay [2] deals with T3, Peptide B, amino acid residues 565 to 583 of human CD166 (human).
T3 construct: Coated at 100 or 200 ng/well with 0.9 mg/mL BSA
T3 peptide: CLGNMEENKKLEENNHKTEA
The assay is described as above.
Excerpt: as §1

B1: Ab1 anti-hCD166 mouse monoclonal antibody (antibody, mouse IgG1, kappa)
heavy: EVQLQQSGAELVKPGASVKLSCTASGFNIKDYYMHWVKQRTEQGLEWIGKIDPENGETKYAPKFQGKATITADTSSSTAYLQLSSLTSEDTAVYYCAREGFMDYWGQGASVTVSSAKTTPPSVYPLAPGSAAQTNSMVTLGCLVKGYFPEPVTVTWNSGSLSSGVHTFPAVLQSDLYTLSSSVTVPSSTWPSQTVTCNVAHPASSTKVDKKIVPRDCGCKPCICTVPEVSSVFIFPPKPKDVLTITLTPKVTCVVVDISKDDPEVQFSWFVDDVEVHTAQTQPREEQFNSTFRSVSELPIMHQDWLNGKEFKCRVNSAAFPAPIEKTISKTKGRPKAPQVYTIPPPKEQMAKDKVSLTCMITDFFPEDITVEWQWNGQPAENYKNTQPIMDTDGSYFVYSKLNVQKSNWEAGNTFTCSVLHEGLHNHHTEKSLSHSPGK
light: DVVMTQTPLSLPVSLGDQASISCRSSQSLVHSNGNTYLHWYLQKPGQSPKLLIYKVSNRFSGVPDRFSGSGSGTDFTLKISRVEAEDLGVYFCSQSTFVPLTFGAGTKLELKRADAAPTVSIFPPSSEQLTSGGASVVCFLNNFYPKDINVKWKIDGSERQNGVLNSWTDQDSKDSTYSMSSTLTLTKDEYERHNSYTCEATHKTSTSPIVKSFNRNEC
notes: also called recombinant Ab1
Regarding B1, the binding result with human CD166 is given as “binds”. The A620 stood at 0.162 A620 in assay [1] and 3.23 A620 in assay [2].

B2: Ab2 anti-hCD166 mouse monoclonal antibody (antibody, mouse IgG1, kappa)
heavy: EVQLQQSGAELVKPGASVKLSCTASGFNIKDYYMHWVRQRTEQGLEWIGKIDPEDGETKYAPKFQGKATITADTSSNTAYLQLSSLTSEDTAVYYCAREGFMDYWGQGTSVTVSSAKTTPPSVYPLAPGSAAQTNSMVTLGCLVKGYFPEPVTVTWNSGSLSSGVHTFPAVLQSDLYTLSSSVTVPSSTWPSQTVTCNVAHPASSTKVDKKIVPRDCGCKPCICTVPEVSSVFIFPPKPKDVLTITLTPKVTCVVVDISKDDPEVQFSWFVDDVEVHTAQTQPREEQFNSTFRSVSELPIMHQDWLNGKEFKCRVNSAAFPAPIEKTISKTKGRPKAPQVYTIPPPKEQMAKDKVSLTCMITDFFPEDITVEWQWNGQPAENYKNTQPIMDTDGSYFVYSKLNVQKSNWEAGNTFTCSVLHEGLHNHHTEKSLSHSPGK
light: DNVMTQTPLSLSVSLGDQASISCRSSQSLVHSNGNTYLHWYLQKPGQSPKLLIYKVSNRFSGVPDRFSGSGSGTDFTLKISRVEAEDLGVYFCSQSTHVPLTFGAGTKLELKRADAAPTVSIFPPSSEQLTSGGASVVCFLNNFYPKDINVKWKIDGSERQNGVLNSWTDQDSKDSTYSMSSTLTLTKDEYERHNSYTCEATHKTSTSPIVKSFNRNEC
notes: Tested as hybridoma supernatant and as antibody purified from hybridoma supernatant
Consider B2, for which, in the assay with human CD166, the binding result is “binds”. For the same molecule, the figures for the A620 in assay [1] and in assay [2] were 0.067 A620 and 3.02 A620, respectively.

Source of the values: patent publication US20200223919A1 (CYTOMX THERAPEUTICS, published 2020).
